± gives the uncertainty stated by the source.
Experiment: self-splicing fitness, log relative to wild type (ln ratio); higher = more splicing; Tetrahymena group I intron in knt gene, E. coli kanamycin selection, DiMSum; sequences stand for … in CUCUCU…GGAGGGAAAAGUUAUCAGGCAUGCACCUGGUAGCUAGUCUUUAAACCAAUAGAUUGCAUCGGUUUAAAAGGCAAGACCGUCAAAUUGCGGGAAAGGGGUCAACAGCCGUUCAGUACCAAGUCUCAGGGGAAACUUUGAGAUGGCCUUGCAAAGGGUAUGGUAAUAAGCUGACGGACAUGGUCCUAACCACGCAGCCAAGUCCUAAGUCAACAGAUCUUCUGUUGAUAUGGAUGCAGUUCACAGACUAAAUGUCGGUCGGGGAAGAUGUAUUCUUCUCAUAAGAUAUAGUCGGACCUCUCCUUAAUGGGAGCUAGCGGAUGAAGUGAUGCAACACUGGAGCCGCUGGGAACUAAUUUGUAUGCGAAAGUAUAUUGAUUAGUUUUGGAGUACUCGUGGUCG
Outline: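 Library with all eight P1ex-region intron nucleotides randomised, intron inside the knt kanamycin-resistance gene on pET-22b(+), in E. coli BL21(DE3). Cells grew overnight at 37°C or 30°C on LB agar with or without 25 μg/mL kanamycin (plus 100 μg/mL carbenicillin, 50 μM IPTG, 0.2% rhamnose), in six replicate transformations. Pooled colonies were amplicon-sequenced on Illumina HiSeq 2500. DiMSum fitness is the error-weighted combination of wild-type-normalised replicate fold changes, kanamycin versus none.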

Sequence | self-splicing fitness (ln) (30 °C) | self-splicing fitness (ln) (37 °C)
UAUUAGCAAUAUUACGGUAA | -2.24 ± 0.26 | -1.54 ± 0.23
UAUUAGCAAUAUUACGGUUA | 0.108 ± 0.097 | -0.239 ± 0.11
UAUUAGCAAUAUUACGUCCC | -2.83 ± 0.42 | -0.713 ± 0.46
UAUUAGCAAUAUUACGUUCA | -1.04 ± 0.1 | -0.21 ± 0.14
UAUUAGCAAUAUUACGUUGG | -2.1 ± 0.21 | -0.685 ± 0.18
UCAAAGCAAUAUUACGAACC | -2.8 ± 0.27 | -0.879 ± 0.28
UCAAAGCAAUAUUACGAAGU | -2.96 ± 0.16 | -2.39 ± 0.24
UCAAAGCAAUAUUACGACCA | -1.97 ± 0.22 | -1.4 ± 0.23
UCAAAGCAAUAUUACGACCC | -3.88 ± 0.35 | -2.34 ± 0.39
UCAAAGCAAUAUUACGAUCG | -0.659 ± 0.085 | -0.141 ± 0.11
UCAAAGCAAUAUUACGCACU | -2.08 ± 0.11 | -2.5 ± 0.22
UCAAAGCAAUAUUACGCCCC | -2.12 ± 0.39 | -1.54 ± 0.37
UCAAAGCAAUAUUACGCCUA | -2.71 ± 0.2 | -0.722 ± 0.11
UCAAAGCAAUAUUACGCGAG | -0.91 ± 0.12 | -0.54 ± 0.14
UCAAAGCAAUAUUACGCUCU | -3.71 ± 0.27 | -2.69 ± 0.26
UCAAAGCAAUAUUACGCUGA | -3.43 ± 0.29 | -1.62 ± 0.23
UCAAAGCAAUAUUACGCUUU | -3.89 ± 0.46 | -1.72 ± 0.27
UCAAAGCAAUAUUACGGAAC | -4.3 ± 0.32 | –
UCAAAGCAAUAUUACGGACC | – | -2.54 ± 0.32
UCAAAGCAAUAUUACGGAGC | – | -3.53 ± 0.33

Sequence | self-splicing fitness (ln) (30 °C) | self-splicing fitness (ln) (37 °C)
UCAAAGCAAUAUUACGGAUG | -2.78 ± 0.08 | -1.32 ± 0.086
UCAAAGCAAUAUUACGGAUU | -3.73 ± 0.24 | -2.26 ± 0.21
UCAAAGCAAUAUUACGGCCC | -3.79 ± 0.47 | -2.18 ± 0.46
UCAAAGCAAUAUUACGGCGU | -0.917 ± 0.065 | -0.201 ± 0.086
UCAAAGCAAUAUUACGGUCG | -0.405 ± 0.069 | -0.439 ± 0.094
UCAAAGCAAUAUUACGGUUU | -3.06 ± 0.21 | -3 ± 0.27
UCAAAGCAAUAUUACGUACC | -3.01 ± 0.3 | -1.69 ± 0.3
UCAAAGCAAUAUUACGUCCU | -3.34 ± 0.29 | -1.98 ± 0.24
UCAAAGCAAUAUUACGUUGC | -3.48 ± 0.19 | -3.23 ± 0.26
UCACAGCAAUAUUACGAUCC | -3.08 ± 0.2 | -2.03 ± 0.22
UCACAGCAAUAUUACGAUUC | -3.61 ± 0.16 | -3.05 ± 0.18
UCACAGCAAUAUUACGCAAA | -2.74 ± 0.19 | -2.91 ± 0.17
UCACAGCAAUAUUACGCAAU | – | -2.13 ± 0.14
UCACAGCAAUAUUACGCCAG | -1.6 ± 0.15 | -0.668 ± 0.25
UCACAGCAAUAUUACGCGCA | -0.0823 ± 0.068 | 0.0608 ± 0.075
UCACAGCAAUAUUACGCGGC | -3.63 ± 0.23 | -2.5 ± 0.28
UCACAGCAAUAUUACGCUAU | – | -2.23 ± 0.21
UCACAGCAAUAUUACGGAAC | -2.98 ± 0.21 | -2.45 ± 0.26
UCACAGCAAUAUUACGGCAG | -2.03 ± 0.12 | -0.996 ± 0.16
